Test results published in doi:10.1101/2024.12.07.627365 (bioRxiv, 2024).

Molecular target: T1, Extended FH2 FMN1 (UniProt Q05860 961-1466)
T1 sequence (looked up): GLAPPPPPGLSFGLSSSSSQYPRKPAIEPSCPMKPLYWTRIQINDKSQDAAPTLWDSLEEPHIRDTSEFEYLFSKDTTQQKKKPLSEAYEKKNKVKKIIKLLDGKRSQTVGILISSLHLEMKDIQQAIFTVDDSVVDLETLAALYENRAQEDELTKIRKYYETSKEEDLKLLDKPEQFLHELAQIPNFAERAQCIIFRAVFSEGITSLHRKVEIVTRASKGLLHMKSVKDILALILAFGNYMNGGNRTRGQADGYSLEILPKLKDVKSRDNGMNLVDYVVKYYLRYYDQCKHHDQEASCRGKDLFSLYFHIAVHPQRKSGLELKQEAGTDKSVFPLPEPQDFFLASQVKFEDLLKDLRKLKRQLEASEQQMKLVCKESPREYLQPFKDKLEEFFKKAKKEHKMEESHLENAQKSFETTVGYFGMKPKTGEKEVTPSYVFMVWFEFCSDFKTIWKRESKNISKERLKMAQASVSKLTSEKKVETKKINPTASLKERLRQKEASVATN
Test: SPR

B1: N-terminal WW1-WW2 FNBP4 (domain or fragment, UniProt Q8N3X1 214-629, looked up)
chain: GIEMGDWQEVWDENTGCYYYWNTQTNEVTWELPQYLATQVQGLQHYQPSSVPGAETSFVVNTDIYSKEKTISVSSSKSGPVIAKREVKKEVNEGIQALSNSEEEKKGVAASLLAPLLPEGIKEEEERWRRKVICKEEPVSEVKETSTTVEEATTIVKPQEIMLDNIEDPSQEDLCSVVQSGESEEEEEQDTLELELVLERKKAELRALEEGDGSVSGSSPRSDISQPASQDGMRRLMSKRGKWKMFVRATSPESTSRSSSKTGRDTPENGETAIGAENSEKIDENSDKEMEVEESPEKIKVQTTPKVEEEQDLKFQIGELANTLTSKFEFLGINRQSISNFHVLLLQTETRIADWREGALNGNYLKRKLQDAAEQLKQYEINATPKGWSCHWDRDHRRYFYVNEQSGESQWEFPDG
B1 was tested, and the Kd was 36.5 nM, the koff was 0.000803 s⁻¹ and the kon was 22500 M⁻¹ s⁻¹.
